From article PMC2737543, “The crystal structure of Haloferax volcanii proliferating cell nuclear antigen reveals unique surface charge characteristics due to halophilic adaptation” (BMC Structural Biology, 2009) come the findings set out here.

The data set deals with the molecule itself. Nature of the data set: SEC; 10/300 Superdex 200, 50 mM HEPES pH 7.0, KCl 0.2 to 3.0 M (and equivalent NaCl); protein incubated 4 hours in the buffer before loading; 0.5 ml/min; calibrated with molecular weight standards.

B1: Haloferax volcanii proliferating cell nuclear antigen (natural protein)
chain: MFKAIVSAATLRDALDSVSVLVDECKIRLNEESLSIRAVDPANVGMVDLTLDAAAFESYEAHGGVIGVNLSRLEEVAGMAGAGDLIHLTLDEETRKLNIRIDGLSYTLALIDPDSIRQEPDIPDLDLAANIVLEGTHLDRGIKAADMVSDHIRLRVDGAEETFHIEAEGDTDDVDLSLPPADLISIEAGAADSLFSLDYLKDMNKAIPTDAEVTVELGEEFPVKLHYQIAEGMGTITYMLAPRIQSD
notes: Homotrimer; No tag is mentioned; In the model the N-terminal methionine is missing and the C-terminus is not modelled from residue 244; also called HvPCNA; H. volcanii PCNA; source: E. coli B834 (DE3), purified (ammonium sulphate precipitation, Superdex 200, Q-sepharose FF)
B1: the “stoichiometry N” value amounted to 3.
